Data taken from publication PMC8251270 (Journal of Leukocyte Biology, 2021).
Residue numbers refer to the chain shown, from its start.

What was measured:
[1] = target: recombinant receptor‐binding motif (RBM) of SARS‐CoV‐2 spike (S) protein, residue 437–508 (SARS-CoV-2, UniProt P0DTC2); assay: SPR; settings: both partners purified
[2] = target: tetranectin (TN) of murine lung tissue (Mus musculus (lung tissue lysate), UniProt P43025); assay: Western blot; settings: one partner purified
tetranectin (TN) of murine lung tissue, sequence (P43025 22-202): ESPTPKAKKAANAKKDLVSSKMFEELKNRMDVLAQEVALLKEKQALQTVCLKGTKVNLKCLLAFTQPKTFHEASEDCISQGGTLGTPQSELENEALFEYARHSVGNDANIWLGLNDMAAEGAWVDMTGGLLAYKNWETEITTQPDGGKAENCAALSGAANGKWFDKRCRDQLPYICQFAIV

B1: mAb8 (antibody, V domains shown)
VH: DVKLVESGGGLVKLGGSLKLSCAASGFTFSTDYMSWVRQSPEKRLELVAAINSNGGTTYYPDTVKGRFIISRDNAKNTLYLQMSSLRSEDTALYYCARQVKNGLDYWGQGTSVTVSS
VL: DIQMTQTTSSLSASLGDRVTISCRASQDISNYLNWYQQKPDGTVKLLIYKTSRLHSGVPSRFRGSGSGTDYSLTISNLEEEDVATYFCQQGNTLPPTFGGGTKLEIK
In the case of B1, the Kd [1] is reported as 17.4 nM and the binding result [2] is reported as “binds”.

B2: mAb2 (antibody, V domains shown)
VH: B1 VH with K13N, T31S, S40I, I69T, R87K, V100G, L104M
VL: B1 VL with Y32H, K39R, K50Y, R63S, L73F, S76T, E79D, E80Q, V83I, N92K
With B2 the Kd [1] was 62.8 nM and the binding result [2] was “binds”.
